Test results as given in publication doi:10.1101/382838.

Molecular target: C. elegans PGL-3 N-terminal dimerization domain (NtDD), wild type (C. elegans)
Assay: SEC-MALS

Substance: C. elegans PGL-3 N-terminal dimerization domain (NtDD), wild type (domain or fragment)
- stoichiometry N: 2
